In the nanobody polyreactivity screen of Harvey et al. (2022):

Assay: yeast display, Sf9 membrane polyspecificity reagent, FACS + sequencing; frameworks hold sequencing errors
Summary of the method: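 A nanobody's polyreactivity label depends on the gate it was sorted from. Yeast display cells were stained with 10% biotinylated, detergent-solubilized Sf9 membrane reagent for 1 hour at 4 °C, enriched on streptavidin microbeads and sorted by FACS. The low and high (top ~1%) gates were set on anti-HA fluorescence for expression and streptavidin fluorescence for reagent binding.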

Sequence	polyreactivity (PSR sort gate)
QVQLVESGVGLVQAGGTLRLSCAASGSIFDWNVIGWYRQTPGKERELVASISESTDSTYYADSVKGRFTISRDNAKNTVYFQMNSLKPEDTAVYYCATAYPEWAVWGYDYWGQGTQVTLSS	low polyreactivity
QVQLVESGVGLVQAGGTLRLSCAATGSIFWDYAMGWYRHAPGKERQLVASITSGGSTYYADSVKGRFTISRDNAMNTVYLQMNSLKPEETAVYYCAADGHTRHWGQTGRGAMYYWGQGTQVTVSS	low polyreactivity
QVQLVESGVGLVQAGRSLSLICAASGSTFFLYGMGWYIQAPGKERDLVAAITWNGGSTYYADSVKGRFTISRDNAKNTVYLQMKSLKPEDTAVYYCAADYYGFFSTPYDYWGQGTQVSVSS	low polyreactivity
QVQLVESGVGLVQARGSLRLSCAASGSIFKYYTRRWYRQAPGKERELVSGISYRGGSTYSADSVKGRFTISRDNAKNTVYLQMNSLKPEDTAVYYCYAFLLSGGDYWGQGSQVTVSS	high polyreactivity
QVQLVESGVGLVQAVGSLRLSCAASGSTFPWYAMGWYRQAPGKERSLVAGSSEGGGSTYYADSVKGRFTISRDNAKNTVYLQMNRLKPEDTAVYYCAADQVGAVYWVGEYGYWGQGTQVTVAS	low polyreactivity
QVQLVESGVGLVQPGGSLRLSSAASGSTSLVNAMRRYRQAPGKERELVAAITRGGNTYYADSVKGRFTISRDNAKNTVYLQMNSLKPEDTAVYYCAAEDHSELGQYDYWGQGTQVTVSS	low polyreactivity
QVQLVESGVRLLQAGGSLRLSCAASGRIFGVYAMGWYITAPGKERELVAAIRGGGSTKYADSVKGRFTISRDNAKNTVYLQMKSLKPEDTAVYYFAARKLYYKHDYWGQGTQVTVSS	low polyreactivity
QVQLVESGVRLVQAGGSLRLSCAASGFNFRRYAMGWYRPAPGKERELVAAISWRSGSTYYADSVKGRFTISRDNAKNTVYLQMNSLKPEDTAVYYCAAKDQATYQLNYWGQGTQVTVSS	high polyreactivity
QVQLVESPGGLVQAGGSLRLSCAASGRTFYRNAMGWYRQAPGKERELVAVISLNGGRTYYADSVKGRFTISRDNAKNTVYLQMNSLKPEDTAVYYCNKLTGPVFTRGFYYWGQGTQVTVSS	high polyreactivity
QVQLVESRAGLVQEGGSLRVSCAASGNILGTYAMGWYRQAPGKERELVAAISSSVGSTYYADSVKARFTISRDNAKNTVYLQINSLKPEDTAVYYCAPQPRVDYEFPYRYGYWGQGSQVTVSS	low polyreactivity
QVQLVESRGALVQAGGSLRLSCAASGLILWVNAMGWNRQAPGKERELVAAISWSSGSTYYADSVKGRFTISRDNAKNTVYLQMNSLKPEASAVYYCAASVRRTGSICHYYYSGQGTQVTVSS	high polyreactivity
QVQLVESRGCLVQAGVSLRLSCAASGSTFQSYAMGCYRQAPGKERELVAAISTSETDRTYYADSVKGRFTISRDNAKNTVYLQMISLKPEDTAVYYCNADGYSHGDWYGYWGQGTQVTVSS	low polyreactivity
QVQLVESRGGLVKAGGSLRLSCAASGRIFRKYDMGWYRQAPGKERELVAAISGTGITYYADSVKGRFTISRDNAKNTVYLQMNRLKPEDTAVYYCARGSKPRAWSWAFASATSIYEYWGQGTQLTVSS	low polyreactivity
QVQLVESRGGLVQAGCSLRLSCAASGSIFLHKAMGWYRQAPGKERELVAVITSRGGSTYYADSVKGRFTISRDNAKITVYVQMNSLNPEDPAVYYCAAPDYHKRTSRGDYWGQGTQVTVSS	low polyreactivity
QVQLVESRGGLVQAGGSHRLSCAASGSIFGYYAMGWYRQAPGNERELVAAIRSTGSTNYADSVKGRFTISRDNAQNSVYLQMNSLKPVDTAVYYCAAGYITWGSGNWVVTPYDYWGQGTQVTVSS	high polyreactivity
QVQLVESRGGLVQAGGSHRLSCADAGYSNIANAMGSDRQAPGKERELVAAISIGGNTKYADSVKGRFTISRDNAKNTVYLQMNSLKPEDTAVYYCAVEDQYYSVSLGGEYDYWGQGTQVTVSS	high polyreactivity
QVQLVESRGGLVQAGGSLPLSCAASGSIFDRYAMGWYRQAPGKERELVAAISRSGGSTYYADSVKGRFTISRDNAKNTVYLQMNSLKPEDTAVYYCAARARSLYDYWGQGTQVTVSS	high polyreactivity
QVQLVESRGGLVQAGGSLRFSCAASGSTFRDYAMGGSRQAPGKERQVLAAISSTGGRTYYADSVKGRFTISRDNAKNTVYLQMNSLKPEDTAVYYCKAALYPSLDYGSASISKSYDYWGQGTQVTVSS	high polyreactivity
QVQLVESRGGLVQAGGSLRISCPDSGFTFTKNAMGWYRQAPGKERELVAAISRGRGRTYYADSVKGRFTISRDNAKNTVYFQMNSLIPEDTAVYYCNVDKVGPGYDYWGQGTQVTVSS	high polyreactivity
QVQLVESRGGLVQAGGSLRLSCAASGFIFTRNAMGWYRQAHGKVRELVAAISYSGGSTYYADSVKGRFTISRDNAKNTVYLQMNSLKPEDTAVYYCNVSPTTSGDGGGYDSWGQGTLVTVSS	low polyreactivity
QVQLVESRGGLVQAGGSLRLSCAASGFTLPANGMGWYRQAPGKERELVAAISFIAGSTYYADSVKGRFTISRDNEKNTVYFQMNSLKPEDTAVYYSATQFPPSSIYDYWGQGTQVTVSS	low polyreactivity
QVQLVESRGGLVQAGGSLRLSCAASGIIFPRYAMGRYRQAPRKERELVAAITRRGGRTYYADSVKGRFTISRDNANNTVYLQMNSLKPEDTAVYYCNADFISTRPPKATDEDYWGQGTQVTVSS	high polyreactivity

Sequence	polyreactivity (PSR sort gate)
QVQLVESRGGLVQAGGSLRLSCAASGITFPRYAMGWYRPAPGKERELVARITSGGRTNYADSVKGRFTISRDNAKNTVYLQMNSLKPEDTAFYYCNAVAQSGRYDYWGQGTQVTVSS	high polyreactivity
QVQLVESRGGLVQAGGSLRLSCAASGLIFTVNAMGWYRQAPGKERELVAAISQSGGSTYYADSVKGRFTISRDNAKNTVYLQMNSLKPEDTAVYYCAAKSDPYRHDYWGQGTQVTVSS	low polyreactivity
QVQLVESRGGLVQAGGSLRLSCAASGRIFGDNAMGWSRQAPGKEREFVATINGSGGSTYYADSVKGRFTISRDNAKNTVYLQMNSLKPEDTAVYYCFVYGYVPYNYWGQGTQVTVSS	low polyreactivity
QVQLVESRGGLVQAGGSLRLSCAASGRIFRYNAMGWYRQAPGKERELVAAITWSGVSTYYADSVKGRFTISRDNAKNTGYLQMNSLKPEHTAVYYCNARRWPAWSSDDYWGQGTQVTVSS	high polyreactivity
QVQLVESRGGLVQAGGSLRLSCAASGRIFRYYAMGWYRQAPGTEREMVAAIRYRGASTYYADSVKGRFTISRDNAKNTVYLQMNSLKPEDTAVYYCAAYDYHPYRIVGASRSDYWGQGTQVTVSS	high polyreactivity
QVQLVESRGGLVQAGGSLRLSCAASGRIFSIYAMGWYRQAPGKERELVAAITNGGGSTYYADSVKGRFTISRDNAKNTVYLPMISLKPEDTAVYYCAARSPGGKNTKYYWGQGTQVTVSS	high polyreactivity
QVQLVESRGGLVQAGGSLRLSCAASGRIFSSYAMGWYRQAPGKERELVAAISSRGGSTYYADSVKGRFTISRDNAKNTVYLQMNSLKPDDTAVYYCARVKYSGVVYKYDYWGQGTQVTVSS	high polyreactivity
QVQLVESRGGLVQAGGSLRLSCAASGRILHFNAMGWYRQAPGKEREFVASISWSGGFTYYADSVKGRFTISRDNAKNTVYLQMNSLTPEDTAVYYCARGYGYGDHAMGYWGQGTQVTVSS	high polyreactivity
QVQLVESRGGLVQAGGSLRLSCAASGRTFDRNAMGWYRQAPGKERQFVAAITSRVGSTYYADSVKGLFTISRDTAKNTVYLQMNSQKPEDTAVYDCNKRYFGEQTWVGGDSWGQGTLVTVSS	high polyreactivity
QVQLVESRGGLVQAGGSLRLSCAASGRTFEYNAMGWYRQAPGKERELVATIRYSGTSTYADSVKGRFTISRDNAKNTVYLQMNSLKPEDTAVYYCAKQVRYYGYKYNYWGQGTQVTVSS	high polyreactivity
QVQLVESRGGLVQAGGSLRLSCAASGSIFLSYAMGWYRQAPGKERELVADISRSGGSTYYADSVKGRFTISRDNAKNTVYLQMNSLKPEDTAVYYCAVYIAVYEGDYWGQGSQVTVSS	low polyreactivity
QVQLVESRGGLVQAGGSLRLSCAASGSIFRPYAMGWYRQAPGKERELVAAISSSGGSTYYADSVKGRFTISRDNAKNTVYLQMNSLKPEDTAVYYCAAESRSTWIHSRDYWGQGTQVTVSS	low polyreactivity
QVQLVESRGGLVQAGGSLRLSCAASGSIFYVYAMGWYRQAPAKERELVAAITSSGTTNYADSVKGRFTIPRDNAKNTVYLQMNSLKPEDTAVYYCAADPDSGQVPFDYWGQGTQVTVSS	low polyreactivity
QVQLVESRGGLVQAGGSLRLSCAASGSTFDGNAMGWYRQAPGKERELVAAISIGGSTSYADSVKGRFTISRDNAKNTVYLQMNSLNPEDTAVYYCAADRYRTFYQWKRYRYDYWGQGTQVTVSS	high polyreactivity
QVQLVESRGGLVQAGGSLRLSCAASGSTFTHYAMGRYRHAPGKERELVAAISWGGGTTRYADSVKGRFTISRDNAKNSVYLQMNSLKPVDTAVYYCAKRVRTGSVGNFNYWGQGTQVSVSS	high polyreactivity
QVQLVESRGGLVQAGGSLRLSCAASGSTSYIYVMGWYRQAPGKERELVATISKNGGDTYADSVKGRFTISRDNAKNTVYLQMNSLKPEDTAVYYCYARAYLYNRRISSRYNYWGQGTQVTVSS	high polyreactivity
QVQLVESRGGLVQAGGSLRLSCAASRSTFGVNAMGWYRQAPGKERELVARISSGVRTYYADSVKGRFTISRDNAKNTVYLQMNSMIPEDTAVYYCAAVYFRGVDRAFLSYSYYYWGQGTQVTVSS	high polyreactivity
QVQLVESRGGLVQAGGSLRLSCAPSGLIFWAYARGWYRQAPGNERELVAAINWRGGSTYYADSVKGRFTISRDNAKNTVYLQMNSLKPEDTAVYYCAADSYYDEYDYWGQGTQVTVSS	low polyreactivity
QVQLVESRGGLVQAGGSLRLSCDASGFIFTLYAMGWYRQAPGKERELVASIRGSGGNTYYADSVKGRFTISRDNAKNTVYLQMNSLKPEDTAVYYCAARTYRRPYSSWGQGTQVTVSS	high polyreactivity
QVQLVESRGGLVQAGGSLRLSCGASGFIFKPYAMGWYRQAPGKERELVASISTGARTYYADSVKGRFTISRDNAKNTVYLQMNSLKPEDTGVYYCAAAYSRWITRYDYWGQGTQVTVSS	high polyreactivity
QVQLVESRGGLVQAGGSLRLSCPASGFTNWRNDMGWYRQAPGKERELVADISTAGRTYYADSVKGRFTISRDNAKNTVYLQMNSLNPEDTAVYYCAKRSYYKDQPRYGYWGQGTQVTVSS	low polyreactivity
